Data reported in patent US20160002331A1 (Pfizer, published 2016).
Values joined by “and” are separate entries in the source; they are usually repeats but may differ in a detail not shown here. Equal values may be shown once. Read-outs that look alike come from different tables or passages of the source.

What was measured:
[1] = molecular target: T1, full-length human Notch1 expressed on the cell surface (human, UniProt P46531 19-2555); assay: cell-based or functional assay
[2] = molecular target: Notch1 receptor with a 12 amino acid insertion at position 1595 (CCRF-CEM cells) (UniProt P46531 19-2555); assay: cell-based or functional assay
Notch1 receptor with a 12 amino acid insertion at position 1595 (CCRF-CEM cells), sequence (P46531 other isoform, or with tags, fused parts or gaps limits assumed): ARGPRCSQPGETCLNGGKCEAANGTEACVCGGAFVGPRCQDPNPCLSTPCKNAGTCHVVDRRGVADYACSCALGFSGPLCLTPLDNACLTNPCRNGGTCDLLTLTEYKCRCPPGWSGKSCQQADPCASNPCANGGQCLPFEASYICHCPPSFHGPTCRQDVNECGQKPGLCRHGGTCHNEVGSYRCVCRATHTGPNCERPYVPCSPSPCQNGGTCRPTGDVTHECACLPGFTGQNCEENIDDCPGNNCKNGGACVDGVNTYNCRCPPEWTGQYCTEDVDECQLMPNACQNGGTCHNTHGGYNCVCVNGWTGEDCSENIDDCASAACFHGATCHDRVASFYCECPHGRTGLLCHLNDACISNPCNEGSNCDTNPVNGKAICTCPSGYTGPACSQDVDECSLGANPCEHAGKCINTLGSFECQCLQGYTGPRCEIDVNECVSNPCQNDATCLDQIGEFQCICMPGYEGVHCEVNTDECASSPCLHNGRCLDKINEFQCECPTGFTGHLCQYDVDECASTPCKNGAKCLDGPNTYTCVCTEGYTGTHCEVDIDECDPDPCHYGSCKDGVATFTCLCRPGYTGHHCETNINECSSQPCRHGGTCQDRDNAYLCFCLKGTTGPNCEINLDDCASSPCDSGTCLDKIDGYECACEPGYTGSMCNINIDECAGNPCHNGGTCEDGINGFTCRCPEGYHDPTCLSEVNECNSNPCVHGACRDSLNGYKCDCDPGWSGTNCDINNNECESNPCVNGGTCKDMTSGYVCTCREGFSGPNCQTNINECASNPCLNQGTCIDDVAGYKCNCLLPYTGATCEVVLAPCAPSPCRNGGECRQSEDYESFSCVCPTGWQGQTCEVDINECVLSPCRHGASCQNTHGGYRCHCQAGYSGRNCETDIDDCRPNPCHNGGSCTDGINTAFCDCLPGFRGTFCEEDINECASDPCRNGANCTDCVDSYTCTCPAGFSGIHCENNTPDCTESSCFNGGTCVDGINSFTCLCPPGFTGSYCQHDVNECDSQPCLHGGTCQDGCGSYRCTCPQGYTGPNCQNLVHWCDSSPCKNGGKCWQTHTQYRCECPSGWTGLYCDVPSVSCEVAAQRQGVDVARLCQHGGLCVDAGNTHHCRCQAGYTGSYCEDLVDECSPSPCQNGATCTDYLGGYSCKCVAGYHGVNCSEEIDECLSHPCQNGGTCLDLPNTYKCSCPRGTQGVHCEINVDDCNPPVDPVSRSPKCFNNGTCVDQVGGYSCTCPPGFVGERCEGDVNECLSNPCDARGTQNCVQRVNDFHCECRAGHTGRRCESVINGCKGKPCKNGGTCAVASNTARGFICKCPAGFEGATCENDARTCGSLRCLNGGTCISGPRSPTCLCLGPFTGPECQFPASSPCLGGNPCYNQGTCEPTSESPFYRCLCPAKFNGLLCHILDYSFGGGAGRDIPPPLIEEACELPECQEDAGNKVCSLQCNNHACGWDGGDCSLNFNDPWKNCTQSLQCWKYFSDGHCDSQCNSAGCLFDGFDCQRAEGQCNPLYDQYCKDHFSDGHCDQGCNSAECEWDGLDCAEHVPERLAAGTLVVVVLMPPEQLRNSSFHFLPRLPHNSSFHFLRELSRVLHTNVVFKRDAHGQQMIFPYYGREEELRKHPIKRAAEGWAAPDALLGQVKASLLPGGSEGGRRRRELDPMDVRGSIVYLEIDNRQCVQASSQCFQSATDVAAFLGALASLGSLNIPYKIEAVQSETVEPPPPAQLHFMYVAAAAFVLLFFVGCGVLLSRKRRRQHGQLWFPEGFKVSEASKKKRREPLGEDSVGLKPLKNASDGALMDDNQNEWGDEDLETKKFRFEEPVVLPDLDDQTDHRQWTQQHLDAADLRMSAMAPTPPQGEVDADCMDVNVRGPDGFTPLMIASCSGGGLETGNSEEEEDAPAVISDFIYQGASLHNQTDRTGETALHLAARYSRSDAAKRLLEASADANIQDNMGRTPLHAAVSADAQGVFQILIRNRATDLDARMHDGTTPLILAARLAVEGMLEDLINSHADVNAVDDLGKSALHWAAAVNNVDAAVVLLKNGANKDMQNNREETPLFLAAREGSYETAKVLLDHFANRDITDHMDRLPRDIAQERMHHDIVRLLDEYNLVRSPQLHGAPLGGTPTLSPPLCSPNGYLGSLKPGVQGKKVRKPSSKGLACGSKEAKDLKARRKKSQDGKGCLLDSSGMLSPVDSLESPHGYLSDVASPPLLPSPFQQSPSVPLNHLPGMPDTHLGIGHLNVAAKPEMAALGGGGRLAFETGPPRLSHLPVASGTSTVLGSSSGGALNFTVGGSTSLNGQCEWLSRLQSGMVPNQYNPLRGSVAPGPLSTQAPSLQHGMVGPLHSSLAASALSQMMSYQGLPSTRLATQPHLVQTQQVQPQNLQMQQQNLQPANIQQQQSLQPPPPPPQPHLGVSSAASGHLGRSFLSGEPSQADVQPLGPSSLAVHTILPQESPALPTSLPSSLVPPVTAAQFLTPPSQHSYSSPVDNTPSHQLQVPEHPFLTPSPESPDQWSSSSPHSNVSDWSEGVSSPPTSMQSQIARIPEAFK

[3] = molecular target: T2, Notch1 receptor with L1575P mutation (HPB-ALL cells) (UniProt P46531 19-2555, limits assumed); assay: cell-based or functional assay
T2 sequence (P46531 19-2555 L1593P limits assumed): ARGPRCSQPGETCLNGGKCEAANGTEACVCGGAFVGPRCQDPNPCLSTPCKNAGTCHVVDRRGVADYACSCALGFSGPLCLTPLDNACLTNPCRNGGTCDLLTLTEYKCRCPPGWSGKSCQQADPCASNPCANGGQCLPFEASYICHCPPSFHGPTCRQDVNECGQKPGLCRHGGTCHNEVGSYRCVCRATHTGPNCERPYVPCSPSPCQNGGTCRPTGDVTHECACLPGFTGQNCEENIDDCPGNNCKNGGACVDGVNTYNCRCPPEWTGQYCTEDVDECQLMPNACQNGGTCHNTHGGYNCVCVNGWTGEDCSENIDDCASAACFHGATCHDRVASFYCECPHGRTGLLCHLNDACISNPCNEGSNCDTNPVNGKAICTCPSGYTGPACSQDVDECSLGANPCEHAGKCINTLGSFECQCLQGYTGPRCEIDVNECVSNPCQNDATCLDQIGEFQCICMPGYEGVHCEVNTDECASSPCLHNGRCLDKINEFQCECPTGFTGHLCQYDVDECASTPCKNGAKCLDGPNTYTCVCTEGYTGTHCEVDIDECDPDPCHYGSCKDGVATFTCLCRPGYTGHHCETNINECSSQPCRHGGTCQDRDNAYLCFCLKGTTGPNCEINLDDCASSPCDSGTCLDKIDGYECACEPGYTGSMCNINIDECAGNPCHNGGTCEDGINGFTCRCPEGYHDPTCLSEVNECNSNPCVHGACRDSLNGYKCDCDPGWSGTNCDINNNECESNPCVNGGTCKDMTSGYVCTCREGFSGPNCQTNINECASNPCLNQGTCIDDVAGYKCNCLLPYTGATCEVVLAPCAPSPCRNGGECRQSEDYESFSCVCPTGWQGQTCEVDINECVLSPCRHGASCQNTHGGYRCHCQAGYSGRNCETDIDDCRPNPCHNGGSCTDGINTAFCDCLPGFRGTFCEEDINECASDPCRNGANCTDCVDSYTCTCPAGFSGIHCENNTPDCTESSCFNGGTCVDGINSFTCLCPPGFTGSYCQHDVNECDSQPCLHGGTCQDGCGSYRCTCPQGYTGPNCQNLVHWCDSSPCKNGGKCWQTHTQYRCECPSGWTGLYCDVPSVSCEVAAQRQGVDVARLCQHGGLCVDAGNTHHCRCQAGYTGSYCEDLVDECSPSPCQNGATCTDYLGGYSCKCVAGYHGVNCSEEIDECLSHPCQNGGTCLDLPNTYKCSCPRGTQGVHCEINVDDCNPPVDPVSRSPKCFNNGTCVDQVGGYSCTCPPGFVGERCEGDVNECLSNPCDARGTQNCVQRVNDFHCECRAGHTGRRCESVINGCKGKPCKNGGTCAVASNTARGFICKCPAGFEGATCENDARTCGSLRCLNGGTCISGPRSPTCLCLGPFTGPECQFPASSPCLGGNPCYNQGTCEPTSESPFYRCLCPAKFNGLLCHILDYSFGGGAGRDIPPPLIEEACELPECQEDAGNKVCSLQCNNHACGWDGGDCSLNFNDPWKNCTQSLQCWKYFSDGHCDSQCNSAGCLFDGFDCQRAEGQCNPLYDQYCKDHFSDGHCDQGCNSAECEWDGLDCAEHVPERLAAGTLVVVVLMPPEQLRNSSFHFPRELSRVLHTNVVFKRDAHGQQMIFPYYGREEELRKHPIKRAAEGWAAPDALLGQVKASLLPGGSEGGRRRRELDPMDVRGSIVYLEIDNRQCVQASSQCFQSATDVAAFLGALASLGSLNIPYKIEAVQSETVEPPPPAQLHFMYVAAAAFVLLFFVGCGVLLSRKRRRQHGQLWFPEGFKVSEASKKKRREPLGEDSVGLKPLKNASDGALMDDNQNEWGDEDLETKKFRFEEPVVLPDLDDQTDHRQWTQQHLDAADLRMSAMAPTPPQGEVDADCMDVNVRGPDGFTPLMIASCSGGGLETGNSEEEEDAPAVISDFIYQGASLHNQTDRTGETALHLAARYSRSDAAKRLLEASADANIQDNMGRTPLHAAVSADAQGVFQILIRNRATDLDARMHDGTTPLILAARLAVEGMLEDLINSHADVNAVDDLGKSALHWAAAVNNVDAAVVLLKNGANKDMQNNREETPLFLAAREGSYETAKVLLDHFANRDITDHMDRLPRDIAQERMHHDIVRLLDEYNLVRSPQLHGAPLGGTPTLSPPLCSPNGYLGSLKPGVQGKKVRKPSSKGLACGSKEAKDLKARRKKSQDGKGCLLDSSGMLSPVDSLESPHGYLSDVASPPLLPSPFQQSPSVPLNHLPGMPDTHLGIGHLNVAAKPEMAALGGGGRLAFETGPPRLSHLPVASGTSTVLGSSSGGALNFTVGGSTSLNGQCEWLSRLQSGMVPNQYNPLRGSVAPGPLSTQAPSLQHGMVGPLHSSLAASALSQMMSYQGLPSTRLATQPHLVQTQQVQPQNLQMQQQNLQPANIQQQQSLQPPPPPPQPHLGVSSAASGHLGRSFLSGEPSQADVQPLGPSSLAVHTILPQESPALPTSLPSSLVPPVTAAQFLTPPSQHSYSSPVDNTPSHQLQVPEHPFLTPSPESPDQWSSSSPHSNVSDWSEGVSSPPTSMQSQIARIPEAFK

[4] = molecular target: T3, full-length mouse Notch1 expressed on the cell surface of U-2 OS cells (mouse, UniProt Q01705 19-2531); assay: cell-based or functional assay
[5] = molecular target: T1, full-length human Notch1 expressed on …; assay: cell-based or functional assay; remark: listed apart in the source
[6] = molecular target: T2, Notch1 receptor with L1575P mutation …; assay: cell-based or functional assay; remark: listed apart in the source
[7] = molecular target: T4, human Notch1 NRR_Avi_His recombinant protein (human, UniProt P46531 1434-1737); assay: SPR (Biacore T100), antibody captured by anti-human IgG-Fc, NRR_Avi_His as analyte, 1:1 Langmuir model
T4 construct: Secreted from CHO-PACE cells; cleaved at S1 into an N-terminal ~26 kDa half (LNR-A, B, C, HD1) and a C-terminal ~12 kDa half (HD2 and tag) that stay associated non-covalently; written here as one chain; also called recombinant human Notch1 NRR; human Notch1 NRR immunogen
T4 sequence: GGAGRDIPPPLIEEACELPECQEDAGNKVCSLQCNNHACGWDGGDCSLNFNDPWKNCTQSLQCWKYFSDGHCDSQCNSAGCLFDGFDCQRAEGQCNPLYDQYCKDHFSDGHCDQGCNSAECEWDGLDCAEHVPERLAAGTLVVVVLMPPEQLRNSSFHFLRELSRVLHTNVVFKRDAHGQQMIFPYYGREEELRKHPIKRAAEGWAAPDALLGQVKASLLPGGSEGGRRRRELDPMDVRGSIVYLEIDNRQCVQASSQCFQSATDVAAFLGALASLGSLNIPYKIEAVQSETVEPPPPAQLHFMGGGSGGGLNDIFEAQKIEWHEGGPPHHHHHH
Experimental: (§1) The kinetic constants of the anti-Notch1 NRR interactions were determined by surface plasmon resonance (Biacore® T100, Biacore Inc., Piscataway, N.J.). Flow cells of a CM5 chip were immobilized with approximately 10,000 Resonance Unit (RU) of anti-human IgG-Fc (Biacore®) in 10 mM Glycine, pH 5.0 at 10 μl/min for 600 seconds. […] Association of four concentrations of human Notch1 NRR_Avi_His recombinant protein (from 3.7-100 nM) and a zero concentration (running buffer) at 100 μl/min were recorded for 3 minutes in TBS with 1 mM CaCl₂. Dissociation of the complexes was measured for 10 minutes. The surface of the chip was regenerated by injecting 3M MgCl₂ with 3 mM EGTA for 60 seconds at 10 μl/min. Curves obtained after subtraction of the reference and buffer signals were fitted to a 1:1 Langmuir binding model with Biacore® T100 Evaluation Software (Biacore®).

[8] = molecular target: T1, full-length human Notch1 expressed on …; assay: cell-based or functional assay; remark: listed apart in the source
[9] = molecular target: T3, full-length mouse Notch1 expressed on …; assay: cell-based ELISA, U-2 OS cells expressing full-length mouse Notch1
Experimental: (§2) Supernatants from clones displaying positive binding to immunogens in recombinant Notch1 NRR based ELISAs described above were then screened for cell surface Notch1 binding in a cell-based ELISA. U-2 OS cells stably overexpressing human or mouse full length Notch1 protein on cell surface were plated at 50,000 cells/well in 96 well plates (white opaque, BD/VWR) the day before ELISA assay. On the day of the ELISA, culture media were removed from wells and serially diluted (1:3 in blocking buffer) antibody solutions or hybridoma culture supernatants were applied to the plate. Plates were incubated at room temperature for 2 hours before being washed with PBS-Mg/Ca. HRP-conjugated secondary antibody was then applied and incubated with cells for 1 hour as described above for recombinant protein ELISA. Plates were washed with PBS-Mg/Ca before being developed with Pico-Chemiluminescent developing kit (Thermal Scientific), and chemiluminescence measurements were performed per manufacturer's instructions. Data plotting and analyses were performed with Microsoft Excel and Graphpad-Prizm software.

[10] = molecular target: T1, full-length human Notch1 expressed on …; assay: cell-based or functional assay; remark: listed apart in the source
[11] = molecular target: T1, full-length human Notch1 expressed on …; assay: competition ELISA on U-2 OS cells expressing full-length human Notch1; competitor 0.8 nM biotinylated rat 351
Experimental: (§3) In a similar manner as described for recombinant protein or cell based ELISAs, 96 well cell culture plates were either coated with Notch1 NRR-Avi_His protein (hi-bound co-Star plates), or seeded with full length Notch1 expressing U-2 OS cells (cell culture plate, Co-star), respectively.
(§4) After incubation for 2 hours, the plates were washed, as described above, and HRP-conjugated streptavidin (Southern Biotech) diluted 1:5000 in blocking buffer was applied. Incubation with streptavidin was allowed for 30 min before the plates were washed again and developed with TMB solution for 10 minutes. Developing reaction was stopped by adding 0.18M H₂SO₄ and absorbance at 450 nm was measured. Data plotting and analyses were performed with Microsoft Excel and Graphpad-Prizm software.

[12] = molecular target: T3, full-length mouse Notch1 expressed on …; assay: cell-based or functional assay; remark: listed apart in the source
[13] = molecular target: T1, full-length human Notch1 expressed on …; assay: cell-based or functional assay; remark: listed apart in the source
[14] = molecular target: T4, human Notch1 NRR_Avi_His recombinant …; assay: SPR (Biacore T100), ratio of KD to that of rat 351
[15] = molecular target: T1, full-length human Notch1 expressed on …; assay: cell-based ELISA, U-2 OS cells expressing full-length human Notch1
Experimental: as §2

[16] = molecular target: T1, full-length human Notch1 expressed on …; assay: competition ELISA on U-2 OS cells expressing full-length human Notch1; competitor 0.8 nM biotinylated rat 438
Experimental: as §3, §4

[17] = molecular target: T4, human Notch1 NRR_Avi_His recombinant …; assay: SPR (Biacore T100), ratio of KD to that of rat 438-hIgG1
Experimental: as §1

[18] = molecular target: T3, full-length mouse Notch1 expressed on …; assay: cell-based or functional assay; remark: listed apart in the source
[19] = molecular target: T1, full-length human Notch1 expressed on …; assay: cell-based or functional assay; remark: listed apart in the source
[20] = molecular target: T4, human Notch1 NRR_Avi_His recombinant …; assay: competition ELISA on coated human Notch1 NRR_Avi_His; competitor 0.8 nM biotinylated rat 438
Experimental: as §3, §4

T1 sequence (P46531 19-2555): as the sequence (P46531 19-2555 L1593P limits assumed) above, with P1575L counted along it

B1: rat 351-mIgG1 (antibody, V domains shown)
VH: EVQLVESGGGLVQPGRSLKVSCLASGFTFSHYGMNWIRQAPGKGLDWVASISRSGSYIRYVDTVKGRFTVSRDIAKNTLYLQMTSLRSEDTALYYCAREGQFGDYFEYWGQGVMVTVSS
VL: DIMLTQSPATLSVTPGERISLSCRASQKISTNLHWYQQKPNESPRILIKYASQTISGIPSRFSGSGSGTDFTLHINTVEPEDFSVYYCQQTNSWPLTFGSGTKLEIK
For B1, the “Firefly/Renilla Luminescence, human Notch1 reporter cells + 5 mM EDTA, 0.01 µg/mL antibody” value [1] was 304 Firefly/Renilla ratio, the “Firefly/Renilla Luminescence, human Notch1 reporter cells + 5 mM EDTA, 0.1 µg/mL antibody” value [1] was 202 Firefly/Renilla ratio and the “Firefly/Renilla Luminescence, human Notch1 reporter cells + 5 mM EDTA, 1 µg/mL antibody” value [1] was 84.8 Firefly/Renilla ratio. For the same binder, the “Firefly/Renilla Luminescence, human Notch1 reporter cells + 5 mM EDTA, 10 µg/mL antibody” value [1] was 62.1 Firefly/Renilla ratio, the “Firefly/Renilla Luminescence, human Notch1 reporter cells + 5 mM EDTA, 30 µg/mL antibody” value [1] was 57 Firefly/Renilla ratio and the “Normalized Notch1^ICD level, CCRF-CEM cells, 0.001 µg/ml antibody” value [2] was 0.982 relative to untreated. For the same binder, the “Normalized Notch1^ICD level, CCRF-CEM cells, 0.01 µg/ml antibody” value [2] was 1.04 relative to untreated, the “Normalized Notch1^ICD level, CCRF-CEM cells, 0.1 µg/ml antibody” value [2] was 0.413 relative to untreated and the “Normalized Notch1^ICD level, CCRF-CEM cells, 1 µg/ml antibody” value [2] was 0.043 relative to untreated. The “Normalized Notch1^ICD level, CCRF-CEM cells, 10 µg/ml antibody” value [2] was 0.034 relative to untreated, the “Normalized Notch1^ICD level, HPB-ALL cells, 0.001 µg/ml antibody” value [3] was 0.833 relative to untreated and the “Normalized Notch1^ICD level, HPB-ALL cells, 0.01 µg/ml antibody” value [3] was 0.886 relative to untreated. The “Normalized Notch1^ICD level, HPB-ALL cells, 0.1 µg/ml antibody” value [3] was 0.156 relative to untreated, the “Normalized Notch1^ICD level, HPB-ALL cells, 1 µg/ml antibody” value [3] was 0.075 relative to untreated and the “Normalized Notch1^ICD level, HPB-ALL cells, 10 µg/ml antibody” value [3] was 0.02 relative to untreated. For the same binder, the “Neutralization activity (murine RGA), IC50” value [4] was 0.42 nM, the “Neutralization activity (Human RGA), IC50” value [5] was 0.22 nM and the “IC50, MTS viability assay of HPB-ALL leukemia cells” value [6] was 1.27 nM.

B2: parental rat 351 (antibody, V domains shown)
VH: EVQLVESGGGLVQPGRSLKVSCLASGFTFSHYGMNWIRQAPGKGLDWVASISRSGSYIRYVDTVKGRFTVSRDIAKNTLYLQMTSLRSEDTALYYCAREGQFGDYFEYWGQGVMVTVSS
VL: DIMLTQSPATLSVTPGERISLSCRASQKISTNLHWYQQKPNESPRILIKYASQTISGIPSRFSGSGSGTDFTLHINTVEPEDFSVYYCQQTNSWPLTFGSGTKLEIK
notes: Rat monoclonal IgG from a hybridoma
For B2, the Kd [7] was 2.33 nM and 2.3 nM, the koff [7] was 0.00102 s⁻¹ and the kon [7] was 439000 M⁻¹ s⁻¹. The “IC50, Notch1 signaling inhibition co-culture reporter assay” value [8] was 0.19 nM, the “Maximal Inhibition (%), Notch1 signaling inhibition co-culture reporter assay” value [8] was 87.5% and the EC50 [9] was 0.07 nM. The “Normalized Notch1^ICD level, CCD1076SK fibroblasts on DLL4, 0.001 µg/ml antibody” value [10] was 0.826 relative to untreated, the “Normalized Notch1^ICD level, CCD1076SK fibroblasts on DLL4, 0.01 µg/ml antibody” value [10] was 0.848 relative to untreated and the “Normalized Notch1^ICD level, CCD1076SK fibroblasts on DLL4, 0.1 µg/ml antibody” value [10] was 0.554 relative to untreated. For the same binder, the “Normalized Notch1^ICD level, CCD1076SK fibroblasts on DLL4, 1 µg/ml antibody” value [10] was 0.393 relative to untreated, the “Normalized Notch1^ICD level, CCD1076SK fibroblasts on DLL4, 10 µg/ml antibody” value [10] was 0.302 relative to untreated and the EC50 [11] was 4.43 nM. For the same binder, the “Neutralization activity (murine RGA), IC50” value [12] was 0.3 nM, the “Neutralization activity (Human RGA), IC50” value [13] was 0.4 nM and the “Fold difference from rat 351” value [14] was 1 fold. For the same binder, the EC50 [15] was 0.1 nM.

B3: humanized 438 VH1.1/VL1.8 (antibody, human IgG1, kappa, V domains shown)
VH: EVQLVESGGGLVQPGGSLRLSCAASGFTFSSFAMAWVRQAPGKGLEWVASISYGGADTYYRDSVKGRFTISRDNAKNSLYLQMNSLRAEDTAVYYCAKDLPYYGYTPFVMDAWGQGTLVTVSS
VL: DIQMTQSPSSLSASVGDRVTITCRASQRINTDLHWYQQKPGKAPKVLIKFASQTISGVPSRFSGSGSGTDFTLTISSLQPEDFATYYCQQSNSWPYTFGQGTKLEIKR
notes: full chains (VH1.1)-hIgG1-3M and (VL1.8)-hkappa
B3 was tested, and the EC50 [16] was 3.2 nM, the Kd [7] was 2.1 nM and the koff [7] was 0.000449 s⁻¹. The kon [7] was 214000 M⁻¹ s⁻¹, the EC50 [9] was 0.149 nM and the “Fold difference from rat 438” value [17] was 0.48 fold. For the same binder, the “IC50, mouse Notch1 reporter gene co-culture assay (DLL4-HEK293)” value [18] was 0.46 nM, the “IC50, human Notch1 reporter gene co-culture assay (DLL4-HEK293)” value [19] was 0.17 nM and the EC50 [20] was 1.2 nM. For the same binder, the “IC50, MTS viability assay of HPB-ALL leukemia cells” value [6] was 2.26 nM and the EC50 [15] was 0.203 nM.

B4: humanized 351 VH1.0/VL1.4 (antibody, human IgG1, V domains shown)
VH: EVQLVESGGGLVQPGGSLRLSCAASGFTFSHYGMNWVRQAPGKGLEWVASISRSGSYIRYVDTVKGRFTISRDNAKNSLYLQMNSLRAEDTAVYYCAREGQFGDYFEYWGQGTLVTVSS
VL: DIQMTQSPSSLSASVGDRVTITCRASQKISTNLHWYQQKPGKAPKLLIKYASQTISGVPSRFSGSGSGTDFTLTISSLQPEDFATYYCQQTNSWPLTFGGGTKVEIK
B4 was tested, and the Kd [7] was 4.88 nM and 4.9 nM, the koff [7] was 0.00223 s⁻¹ and the kon [7] was 458000 M⁻¹ s⁻¹. The EC50 [9] was 0.07 nM, the “Neutralization activity (murine RGA), IC50” value [4] was 0.49 nM and the “Neutralization activity (Human RGA), IC50” value [5] was 0.17 nM. The EC50 [11] was 2.11 nM, the “Fold difference from rat 351” value [14] was 2.1 fold and the EC50 [15] was 0.1 nM.
